Our source for the Kd values is patent US20100016556A1 (published 2010).

The target in this assay is T1, CD3 on Jurkat cells (human, UniProt P07766 23-207).
T1 construct: whole, on cells; the CD3 complex has several chains; also called T cells (Jurkat); J6 cells
Briefly: binding to J6 cells; method not described.

T1 sequence (P07766 23-207): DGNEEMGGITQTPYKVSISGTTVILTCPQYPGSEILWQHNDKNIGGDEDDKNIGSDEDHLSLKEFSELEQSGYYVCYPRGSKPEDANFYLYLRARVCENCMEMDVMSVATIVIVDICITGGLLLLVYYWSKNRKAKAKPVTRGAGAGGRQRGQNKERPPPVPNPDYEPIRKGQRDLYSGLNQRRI

B1: BsF(ab')2 v1 (anti-p185HER2/anti-CD3 v1) (bispecific antibody)
chain 1: not shown
chain 2: not shown
chain 3: DIQMTQSPSSLSASVGDRVTITCRASQDIRNYLNWYQQKPGKAPKLLIYYTSRLESGVPSRFSGSGSGTDYTLTISSLQPEDFATYYCQQGNTLPWTFGQGTKVEIK
chain 4: EVQLVESGGGLVQPGGSLRLSCAASGYSFTGYTMNWVRQAPGKGLEWVALINPYKGVTTYADSVKGRFTISVDKSKNTAYLQMNSLRAEDTAVYYCARSGYYGDSDWYFDVWGQGTLVTVSS
modifications: hinge Cys thioether-linked through o-PDM to the other Fab' arm
Usually Kd stands for the equilibrium constant for the complex coming apart. Read a low Kd as a tighter complex. In the case of B1, the Kd was 140 nM.
